Data as given in paper PMC6989304.

Target: Pinhead-HA (secreted, in conditioned medium of HEK293T cells) (zebrafish)
Assay: reducing and non-reducing SDS-PAGE with immunoblot

Pinhead-HA (secreted, in conditioned medium of HEK293T cells) (ligand)
stoichiometry N: 2
